Data as given in the MegaScale stability set (Tsuboyama et al. 2023).

B1: 6YSE (parent)
chain: HERALMVNRLQKLTRMLRVHPDPKWKQEQQELIKRLK
B2: 2K2A (parent)
chain: ELREAFRLYDKEGNGYISTDVMREILAELDETLSSEDLDAMIDEIDADGSGTVDFEEFMGVMT

Variants of: B1
Test: folding stability dG (cDNA display proteolysis); higher = more stable
Conditions: PBS, room temperature

Folding stability dG [kcal/mol]: each site, then its substitutions
M6: S 0.112 | F -0.384 | T 0.188 | K -0.045 | R 0.36 | H 0.07 | L 1.46 | G -0.19 | Y -0.185
N8: I 1.84 | W 1.34 | G 1.23 | M 1.67 | T 1.92 | Y 1.38 | F 1.21 | D 1.45 | H 1.47 | K 2.4 | E 1.56 | V 1.77 | S 1.67 | L 1.75 | R 2.01 | Q 2.12

Variants of: B2
Test: as above
Conditions: PBS, room temperature

Folding stability dG [kcal/mol], by site and new letter:
E57: L 1.9 | I 1.97 | T 2.46 | D 1.72 | H 2.18 | P 0.106 | Q 2.48 | R 2.48 | W 1.55 | M 2.37 | C 2.01 | Y 1.58 | N 2 | A 2.47 | F 1.47 | S 2.39 | K 2.58 | G 2.33 | V 2.26
V61: P 0.265 | S 1.26 | N 0.566 | A 2.2 | Q 0.902 | R 1.16 | M 1.83 | L 2.06 | I 2.12 | E 0.207 | W 3.03 | F 2.75 | D -0.74 | K 1.32 | C 1.86 | H 1.67 | G 1.49 | T 1.21 | Y 2.69
G60: Q 2.32 | R 2.82 | V 2.13 | K 2.69 | A 2.53 | I 2.39 | E 1.85 | N 2.15 | F 2.49 | S 2.29 | Y 2.57 | T 2.37 | H 2.48 | M 2.5 | L 2.46 | D 1.75 | P 0.712 | C 2.25 | W 2.79
F58: T -0.411 | I 0.406 | Q -0.946 | C 0.529 | N -0.854 | Y 1.6 | E -0.986 | A 0.332 | W 1.69 | M 0.426 | L 0.779 | V 0.336
M59: P -0.961 | L 1.91 | Y 2.02 | A 2.04 | N 0.889 | T 1.49 | I 2.03 | D 0.144 | S 1.77 | W 1.4 | H 1.2 | G 0.537 | C 1.7 | F 2.03 | E 1.41 | K 1.81 | Q 1.65 | R 1.96 | V 2.18
M62: E -0.063 | Y 1.58 | F 2.04 | W 1.83 | K 0.674 | T 0.559 | Q 0.539 | A 0.857 | I 1.48 | N 0.258 | H 0.762 | C 1.81 | G 0.514 | D 0.171 | R 0.711 | V 1.34 | S 0.277 | P 0.128 | L 1.5
E56: K 1.77 | G 1.56 | N 1.86 | Y 2.02 | F 2.04 | V 1.75 | W 1.99 | Q 1.9 | L 1.88 | S 1.75 | R 1.78 | P 1.21 | M 1.64 | T 1.69 | H 1.88 | I 1.87
T63: M 2.17 | H 1.76 | K 1.97 | W 1.33 | I 2.07 | E 1.66 | Q 1.83 | P 1 | Y 1.58 | D 1.26 | C 2.18 | F 1.56 | V 1.82 | G 1.85 | L 2.25 | A 1.97 | S 1.88 | R 1.94 | N 1.82
